According to IntAct's records for PubMed 29039417:

B1: Protein PTHB1 (Homo sapiens), Q3SYG4 (parent)
chain: MSLFKARDWWSTILGDKEEFDQGCLCLANVDNSGNGQDKIIVGSFMGYLRIFSPHPAKTGDGAQAEDLLLEVDLRDPVLQVEVGKFVSGTEMLHLAVLHSRKLCVYSVSGTLGNVEHGNQCQMKLMYEHNLQRTACNMTYGSFGGVKGRDLICIQSMDGMLMVFEQESYAFGRFLPGFLLPGPLAYSSRTDSFLTVSSCQQVESYKYQVLAFATDADKRQETEQQKLGSGKRLVVDWTLNIGEQALDICIVSFNQSASSVFVLGERNFFCLKDNGQIRFMKKLDWSPSCFLPYCSVSEGTINTLIGNHNNMLHIYQDVTLKWATQLPHIPVAVRVGCLHDLKGVIVTLSDDGHLQCSYLGTDPSLFQAPNVQSRELNYDELDVEMKELQKIIKDVNKSQGVWPMTEREDDLNVSVVVSPNFDSVSQATDVEVGTDLVPSVTVKVTLQNRVILQKAKLSVYVQPPLELTCDQFTFEFMTPDLTRTVSFSVYLKRSYTPSELEGNAVVSYSRPTDRNPDGIPRVIQCKFRLPLKLICLPGQPSKTASHKITIDTNKSPVSLLSLFPGFASQSDDDQVNVMGFHFLGGARITVLASKTSQRYRIQSEQFEDLWLITNELILRLQEYFEKQGVKDFACSFSGSIPLQEYFELIDHHFELRINGEKLEELLSERAVQFRAIQRRLLARFKDKTPAPLQHLDTLLDGTYKQVIALADAVEENQGNLFQSFTRLKSATHLVILLIALWQKLSADQVAILEAAFLPLQEDTQELGWEETVDAAISHLLKTCLSKSSKEQALNLNSQLNIPKDTSQLKKHITLLCDRLSKGGRLCLSTDAAAPQTMVMPGGCTTIPESDLEERSVEQDSTELFTNHRHLTAETPRPEVSPLQGVSE
partner: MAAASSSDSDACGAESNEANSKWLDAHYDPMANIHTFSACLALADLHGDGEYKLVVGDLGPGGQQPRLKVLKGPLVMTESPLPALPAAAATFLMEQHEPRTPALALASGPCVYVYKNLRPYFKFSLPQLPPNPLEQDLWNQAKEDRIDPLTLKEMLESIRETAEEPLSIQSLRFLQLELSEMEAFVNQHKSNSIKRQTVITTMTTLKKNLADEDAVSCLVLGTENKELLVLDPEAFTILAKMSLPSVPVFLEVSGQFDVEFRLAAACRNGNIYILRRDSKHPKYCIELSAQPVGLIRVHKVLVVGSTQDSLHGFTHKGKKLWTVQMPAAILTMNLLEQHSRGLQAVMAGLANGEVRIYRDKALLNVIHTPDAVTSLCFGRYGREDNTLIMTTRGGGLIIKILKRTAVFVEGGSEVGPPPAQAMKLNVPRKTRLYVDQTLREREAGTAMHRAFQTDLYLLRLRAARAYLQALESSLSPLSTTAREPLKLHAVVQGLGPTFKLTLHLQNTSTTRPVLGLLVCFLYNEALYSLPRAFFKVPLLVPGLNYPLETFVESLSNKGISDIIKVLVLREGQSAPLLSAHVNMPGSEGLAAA

Variants of: B1
Conditions: with bbs1_human BBS1, Q8NFJ9

Row | Variant | effect of a mutation on the interaction
1 | L680K | with no effect
2 | L681A | with no effect
3 | L681E | with no effect
4 | L681K | with no effect
5 | A682E | with no effect
6 | A682K | with no effect
7 | R683A | with no effect
8 | R683E | with no effect
9 | R683K | with no effect
10 | F684A | with no effect
11 | F684E | with no effect
12 | F684K | with no effect
13 | K685A | with no effect
14 | K685E | with no effect
15 | D686A | with no effect
16 | D686E | with no effect
17 | D686K | with no effect
18 | K687A | with no effect
19 | K687E | with no effect
20 | T688A | with no effect
21 | T688E | with no effect
22 | T688K | disrupting interaction strength

Row | Variant | effect of a mutation on the interaction
23 | P689A | with no effect
24 | P689E | with no effect
25 | P689K | with no effect
26 | A690E | with no effect
27 | A690K | disrupting interaction strength
28 | A690T | disrupting interaction strength
29 | A690V | disrupting interaction strength
30 | P691A | with no effect
31 | P691E | with no effect
32 | P691K | with no effect
33 | P691L | disrupting interaction strength
34 | P691S | disrupting interaction strength
35 | L692A | with no effect
36 | L692E | with no effect
37 | L692K | with no effect
38 | L692R | disrupting interaction strength
39 | Q693A | with no effect
40 | Q693E | with no effect
41 | Q693K | with no effect
42 | H694A | with no effect
43 | H694E | with no effect
44 | H694K | with no effect

Row | Variant | effect of a mutation on the interaction
45 | H694Y | disrupting interaction strength
46 | L695A | with no effect
47 | L695E | with no effect
48 | L695K | with no effect
49 | L695M | disrupting interaction strength
50 | D696A | with no effect
51 | D696E | with no effect
52 | D696K | with no effect
53 | D696V | disrupting interaction strength
54 | T697A | with no effect
55 | T697C | disrupting interaction strength
56 | T697E | with no effect
57 | T697K | with no effect
58 | L698A | with no effect
59 | L698E | with no effect
60 | L698K | with no effect
61 | L699A | with no effect
62 | L699E | with no effect
63 | L699K | disrupting interaction strength
64 | D700A | with no effect
65 | D700E | with no effect
66 | D700K | with no effect

Row | Variant | effect of a mutation on the interaction
67 | G701A | with no effect
68 | G701E | disrupting interaction strength
69 | G701K | with no effect
70 | G701R | disrupting interaction strength
71 | T702A | with no effect
72 | T702C | disrupting interaction strength
73 | T702E | with no effect
74 | T702K | with no effect
75 | Y703A | with no effect
76 | Y703E | with no effect
77 | Y703K | with no effect
78 | K704A | with no effect
79 | K704E | with no effect
80 | Q705A | with no effect
81 | Q705E | with no effect
82 | Q705K | with no effect
83 | Q705M | disrupting interaction strength
84 | V706A | with no effect
85 | V706E | with no effect

Variants of: B1
Conditions: with bbs1_human BBS1, Q8NFJ9
Remark: another data set of the same source

Row | Variant | effect of a mutation on the interaction
86 | A690K | with no effect
